From US20230100941A1, “MOLECULES TARGETING MUTANT RAS PROTEIN” (AELIN THERAPEUTICS, priority 2020, published 2023)
Ends that are not written are not given here.

Columns and labels:
[1] = system: HeLa cell line overexpressing mCherry-tagged KRAS G12V; test: Cellular fluorescent imaging of FITC-labelled pept-ins; assay type: cell-based, human; details: 75 min after treatment
Protocol: Fluorescent cellular imaging was performed using HeLa cells that were transduced with lentiviral particles carrying a construct expressing KRAS G12V labeled N-terminally with mCherry. Cells were seeded in a black μclear® Cellstar® F-bottom 96-well plates (Greiner) in 100 μL full growth medium. […] Next, cells were fixed, washed and counterstained with the nuclear dye NucBlue™ (containing Hoechst 33342). Images were captured on a Leica confocal microscope.
To complement the co-immunoprecipitation approach, we also used a cellular imaging approach to show target engagement. To this end, we generated a HeLa cell line overexpressing mCherry-tagged KRAS G12V and FITC-labelled versions of the RAS-targeting pept-ins.

G12D mutant KRAS = molecular target: T1, G12D mutant KRAS (Homo sapiens, UniProt P01116, G12D); test: In vitro translation assay with streptavidin pull-down of biotinylated pept-ins, Western blot for KRAS; assay type: binding; details: 10 μM biotinylated pept-in
T1 construct: made in house; host or cells: cell-free: PURExpress In Vitro Protein Synthesis Kit (New England Biolabs), linear T7 PCR template
Protocol: (§1) In vitro translation assays were performed using the PURExpress® In Vitro Protein Synthesis Kit (New England Biolabs) according to the manufacturer's instructions. Briefly, linear DNA fragments containing T7 promotor and terminator sequences flanking the KRAS coding sequence were generated using PCR and purified using the MinElute PCR Purification Kit (Qiagen). 250 ng of linear DNA was subsequently used for the in vitro translation reaction, which was performed for 2 hours at 37° C. with shaking (1000 rpm). Indicated biotinylated pept-ins were mixed in the translation reactions from a 5 mM stock solution in 6M Urea to a final concentration of 10 μM. Upon completion of the translation reaction, biotinylated pept-ins were captured from the reaction mix using Streptavidin coated beads (Pierce) during 90 min at room temperature. Beads were next washed with TBS containing 0.1% Tween 20 and bound proteins were finally boiled off in 1×SDS loading dye (Bio-Rad) in TBS buffer. Proteins were resolved using Any kD 15-well Mini-PROTEAN gels (Bio-Rad) during SDS-PAGE and probed for KRAS after Western blotting using a mouse monoclonal KRAS-specific antibody (SC-30, Santa Cruz Biotechnology), which was detected with an HRP-coupled anti-mouse secondary antibody using chemiluminescence on a Bio-Rad Chemidoc MP imaging instrument.
(§2) To mimic this in vitro, we devised an in vitro translation setup producing either wild-type or mutant (G12V, G12C, G12D or G13D) KRAS in the presence of biotinylated RAS-targeting pept-ins. This allowed us to perform a streptavidin pull-down to capture the biotinylated pept-ins from the translation reaction and perform SDS-PAGE and Western blotting to probe the pulled-down fraction for the presence of KRAS. The biotinylated version of pept-in 04-004-N001, i.e. 04-004-N011, which harbours an APR window sequence derived from a wild-type APR, is predicted to target all RAS proteins independently from their mutation status.

G12V mutant KRAS = molecular target: T2, G12V mutant KRAS (Homo sapiens, UniProt P01116, G12V); test: as above; assay type: binding; details: 10 μM biotinylated pept-in
T2 construct: made in house; host or cells: cell-free: PURExpress In Vitro Protein Synthesis Kit (New England Biolabs), linear T7 PCR template
Protocol: as §1, §2

G12C mutant KRAS = molecular target: T3, G12C mutant KRAS (Homo sapiens, UniProt P01116, G12C); test: as above; assay type: binding; details: 10 μM biotinylated pept-in
T3 construct: made in house; host or cells: cell-free: PURExpress In Vitro Protein Synthesis Kit (New England Biolabs), linear T7 PCR template
Protocol: as §1, §2

G13D mutant KRAS = molecular target: T4, G13D mutant KRAS (Homo sapiens, UniProt P01116, G13D); test: as above; assay type: binding; details: 10 μM biotinylated pept-in
T4 construct: made in house; host or cells: cell-free: PURExpress In Vitro Protein Synthesis Kit (New England Biolabs), linear T7 PCR template
Protocol: as §1, §2

KRAS wild-type = molecular target: T5, KRAS wild-type (Homo sapiens, UniProt P01116); test: as above; assay type: binding; details: 10 μM biotinylated pept-in
T5 construct: made in house; host or cells: cell-free: PURExpress In Vitro Protein Synthesis Kit (New England Biolabs), linear T7 PCR template
Protocol: as §1, §2

[2] = molecular target: T6, wild-type KRAS in RASless MEFs (Homo sapiens, UniProt P01116); test: Cellular co-immunoprecipitation assay in RASless MEFs; assay type: cell-based, mouse; details: 25 μM biotinylated pept-in, 16 hours
T6 construct: host or cells: RASless mouse embryonic fibroblasts (HRAS/NRAS-null, endogenous KRAS removed)
Protocol: (§3) Cellular co-immunoprecipitation assays were performed using either KRAS wild-type or mutant G12V expressing RASless MEFs (see elsewhere) or human NCI-H441 lung adenocarcinoma tumor cells and N-terminally biotinylated pept-ins. Cells were seeded at a density of 300,000 cells in a clear 6-well plate (Cellstar, Greiner). One day after seeding, cells were treated with indicated pept-ins at a final concentration of 25 μM and incubated for […]. Next, cells were lysed with NP-40 lysis buffer (150 mM NaCl, 50 mM Tris HC1 pH8, 1% IGEPAL(NP40), 1xHalt phosphatase/protease inhibitors (Thermo), 1U/μl Universal Nuclease (Pierce)) and biotinylated pept-ins were captured with streptavidin-coated magnetic beads (Pierce) during 1 hours at room temperature. Beads were washed with NP40 lysis buffer at least 3 times, after which bound proteins were boiled off in 1× SDS loading dye (Bio-Rad) in NP40 lysis buffer. Proteins were resolved using Any kD 15-well Mini-PROTEAN gels (Bio-Rad) during SDS-PAGE and probed for KRAS after Western blotting using a rabbit polyclonal KRAS-specific antibody (12063-1-AP, Proteintech).
(§4) To this end, relevant MEF cells were treated with 25 μM biotinylated pept-ins overnight (16 hours). Next, cells were lysed, and pept-ins were immunoprecipitated from the lysates using streptavidin-coated beads. […]

[3] = molecular target: T7, mutant G12V KRAS in RASless MEFs (Homo sapiens, UniProt P01116, G12V); test: as above; assay type: cell-based, mouse; details: 25 μM biotinylated pept-in, 16 hours
T7 construct: host or cells: RASless mouse embryonic fibroblasts (HRAS/NRAS-null, endogenous KRAS removed)
Protocol: as §3, §4

Row | Substance | association with mCherry-labelled KRAS (inclusion-like perinuclear structures) [1] | pull-down of G12D mutant KRAS (G12D mutant KRAS) | pull-down of G12V mutant KRAS (G12V mutant KRAS) | pull-down of G12C mutant KRAS (G12C mutant KRAS) | pull-down of G13D mutant KRAS (G13D mutant KRAS) | pull-down of KRAS wild-type (KRAS wild-type) | co-precipitation of wild-type KRAS [2] | co-precipitation of mutant G12V KRAS [3]
1 | 04-015-N032: FITC-labelled version of pept-in 04-015-N001 (KVVVGAVGKGSKVVVGAVGK; also: FITC-labelled, site not given here) | associates with mCherry-labelled KRAS | – | – | – | – | – | – | –
2 | 04-004-N011: biotinylated version of pept-in 04-004-N001 (KLSVFAIKGSKLSVFAIK; also: biotinylated, site not given here) | – | less efficient | efficient pull-down | efficient pull-down | less efficient | efficient pull-down | appeared to precipitate both wild-type and mutant G12V KRAS well | appeared to precipitate both wild-type and mutant G12V KRAS well
